B1: Alpha-taxilin (Homo sapiens), P40222 (parent)
chain: MKNQDKKNGAAKQSNPKSSPGQPEAGPEGAQERPSQAAPAVEAEGPGSSQAPRKPEGAQARTAQSGALRDVSEELSRQLEDILSTYCVDNNQGGPGEDGAQGEPAEPEDAEKSRTYVARNGEPEPTPVVNGEKEPSKGDPNTEEIRQSDEVGDRDHRRPQEKKKAKGLGKEITLLMQTLNTLSTPEEKLAALCKKYAELLEEHRNSQKQMKLLQKKQSQLVQEKDHLRGEHSKAVLARSKLESLCRELQRHNRSLKEEGVQRAREEEEKRKEVTSHFQVTLNDIQLQMEQHNERNSKLRQENMELAERLKKLIEQYELREEHIDKVFKHKDLQQQLVDAKLQQAQEMLKEAEERHQREKDFLLKEAVESQRMCELMKQQETHLKQQLALYTEKFEEFQNTLSKSSEVFTTFKQEMEKMTKKIKKLEKETTMYRSRWESSNKALLEMAEEKTVRDKELEGLQVKIQRLEKLCRALQTERNDLNKRVQDLSAGGQGSLTDSGPERRPEGPGAQAPSSPRVTEAPCYPGAPSTEASGQTGPQEPTSARA
partner: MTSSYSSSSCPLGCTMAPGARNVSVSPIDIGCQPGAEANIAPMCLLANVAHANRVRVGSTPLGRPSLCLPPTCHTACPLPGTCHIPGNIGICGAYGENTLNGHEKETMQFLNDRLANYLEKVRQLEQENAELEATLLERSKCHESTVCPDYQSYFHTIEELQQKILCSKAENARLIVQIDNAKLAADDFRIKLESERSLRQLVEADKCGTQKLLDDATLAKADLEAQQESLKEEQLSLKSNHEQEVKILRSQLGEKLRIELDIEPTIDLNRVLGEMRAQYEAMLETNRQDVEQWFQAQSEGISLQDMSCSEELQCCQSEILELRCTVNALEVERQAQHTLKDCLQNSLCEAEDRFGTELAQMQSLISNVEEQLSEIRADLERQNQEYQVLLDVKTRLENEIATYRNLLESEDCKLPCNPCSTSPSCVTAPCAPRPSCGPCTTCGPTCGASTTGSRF
B2: Phenazine biosynthesis-like domain-containing protein (Homo sapiens), P30039 (parent)
chain: MKLPIFIADAFTARAFRGNPAAVCLLENELDEDMHQKIAREMNLSETAFIRKLHPTDNFAQSSCFGLRWFTPASEVPLCGHATLASAAVLFHKIKNMNSTLTFVTLSGELRARRAEDGIVLDLPLYPAHPQDFHEVEDLIKTAIGNTLVQDICYSPDTQKLLVRLSDVYNRSFLENLKVNTENLLQVENTGKVKGLILTLKGEPGGQTQAFDFYSRYFAPWVGVAEDPVTGSAHAVLSSYWSQHLGKKEMHAFQCSHRGGELGISLRPDGRVDIRGGAAVVLEGTLTA
partner: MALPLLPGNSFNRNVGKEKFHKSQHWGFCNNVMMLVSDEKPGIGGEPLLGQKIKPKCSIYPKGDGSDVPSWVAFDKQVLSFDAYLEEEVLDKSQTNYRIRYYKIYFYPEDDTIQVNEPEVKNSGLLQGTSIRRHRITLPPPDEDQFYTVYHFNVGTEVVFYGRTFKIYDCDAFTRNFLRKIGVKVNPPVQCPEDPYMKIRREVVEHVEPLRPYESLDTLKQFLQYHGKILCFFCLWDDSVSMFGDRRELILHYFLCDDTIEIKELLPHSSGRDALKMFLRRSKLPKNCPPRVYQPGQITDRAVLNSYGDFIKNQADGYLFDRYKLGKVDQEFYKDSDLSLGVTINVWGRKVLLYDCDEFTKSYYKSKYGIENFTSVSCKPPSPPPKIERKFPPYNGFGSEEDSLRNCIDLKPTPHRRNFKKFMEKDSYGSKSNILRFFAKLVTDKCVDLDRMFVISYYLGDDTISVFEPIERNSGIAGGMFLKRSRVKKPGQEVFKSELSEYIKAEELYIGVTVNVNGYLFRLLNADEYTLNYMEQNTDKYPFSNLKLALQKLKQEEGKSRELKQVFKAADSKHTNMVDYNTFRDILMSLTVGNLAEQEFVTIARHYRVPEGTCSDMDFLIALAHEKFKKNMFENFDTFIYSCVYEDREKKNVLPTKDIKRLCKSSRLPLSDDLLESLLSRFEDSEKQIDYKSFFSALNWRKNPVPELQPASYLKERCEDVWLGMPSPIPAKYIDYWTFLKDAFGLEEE

One experiment covers variants of B1. The conditions noted are these: with krt38_human KRT38, O76015.
For the variant P541S, the “effect of a mutation on the interaction” value is reported as “with no effect”.

Regarding S514R, the “effect of a mutation on the interaction” value is recorded as “with no effect”.

R154G: the “effect of a mutation on the interaction” value is given as “disrupting interaction strength”.

Another experiment covers variants of B2. To be noted: with efhc2_human EFHC2, Q5JST6.
For the variant MKLPIFIADAFTARAFRGNPAAVCLLENELDEDMHQKIAREMNLSETAFIRKLHPTDNFAQSSCFGLRWFTPASEVPLCGHATLASAAVLFHKIKNMNSTLTFVTLSGELRARRAEDGIVLDLPLYPAHPQDFHEVEDLIKTAIGNTLVQDICCSPDTQKLLVRLSDVYNRSFLENLKVNTENLLQVENTGKVKGLILTLKGEPGGQTQAFDFYSRYFAPWVGVAEDPVTGSAHAVLSSYWSQHLGKKEMHAFQCSHRGGELGISLRPDGRVDIRGGAAVVLEGTLTA [Y154C], the “effect of a mutation on the interaction” value was “disrupting interaction strength”.

As for MKLPIFIADAFTARAFRGNPAAVCLLENELDEDMHQKIAREMNLSETAFIRKLHPTDNFAQSSCFGLRWFTPASEVPLCGHATLASAAVLFHKIKNMNSTLTFVTLSGELRARRAEDGIVLDLPLYPAHPQDFHEVEDLIKTAIGNTLVQDICYSPDTQKLLVRLSDVYNRSFLENLKVNTENLLQVENTGKVKGLILTLKGEPGGQTQAFDFYSRYFAPWVGVAEDPVTGSAHTVLSSYWSQHLGKKEMHAFQCSHRGGELGISLRPDGRVDIRGGAAVVLEGTLTA [A235T], the “effect of a mutation on the interaction” value is on record as “disrupting interaction strength”.

For the variant MKLPIFIADAFTARAFRGNPAAVCLLENELDEDMHQKIAREMNLSETAFIRKLHPTDNFAQSSCFGLRWFTPASEVPLCGHATLASAAVLFHKIKNMNSTLTFVTLSGELRARRAEDGIVLDLPLYPAHPQDFHEVEDLIKTAIGNTLVQDICYSPDTQKLLVRLSDVYNRSFLENLKVNTENLLQVENTGKVKGLILTLKGEPGGQTQAFDFYSRYFAPWVGVAEDPVTGSAHAVLSSYWSQHLGKKEMHAFQCSRRGGELGISLRPDGRVDIRGGAAVVLEGTLTA [H257R], the “effect of a mutation on the interaction” value is “disrupting interaction strength”.
